How the values were obtained:
[1] = target: UbcH7 (UniProt P68036); experiment: ITC; E2 or E2~Ub in the cell at 25–30 μM, RBR in the syringe at 250–300 μM; 293 K; 25 mM Hepes pH 7.5, 150 mM NaCl, 0.5 mM TCEP; 1:1 binding model
[2] = target: UbcH7-Ub (UniProt P68036); experiment: as above
[3] = target: UbcH5A-Ub (UniProt P51668); experiment: as above
[4] = target: UbcH5B (Homo sapiens) (UniProt P62837); details: cited from earlier work
UbcH5B (Homo sapiens), sequence (P62837 whole entry): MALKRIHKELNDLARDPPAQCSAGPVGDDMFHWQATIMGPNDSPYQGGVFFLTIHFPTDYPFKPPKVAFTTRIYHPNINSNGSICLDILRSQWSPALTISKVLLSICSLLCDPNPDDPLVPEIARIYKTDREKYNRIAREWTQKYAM

HHARI-Ring1, sequence (Q9Y4X5 whole entry, the tested form may be a part): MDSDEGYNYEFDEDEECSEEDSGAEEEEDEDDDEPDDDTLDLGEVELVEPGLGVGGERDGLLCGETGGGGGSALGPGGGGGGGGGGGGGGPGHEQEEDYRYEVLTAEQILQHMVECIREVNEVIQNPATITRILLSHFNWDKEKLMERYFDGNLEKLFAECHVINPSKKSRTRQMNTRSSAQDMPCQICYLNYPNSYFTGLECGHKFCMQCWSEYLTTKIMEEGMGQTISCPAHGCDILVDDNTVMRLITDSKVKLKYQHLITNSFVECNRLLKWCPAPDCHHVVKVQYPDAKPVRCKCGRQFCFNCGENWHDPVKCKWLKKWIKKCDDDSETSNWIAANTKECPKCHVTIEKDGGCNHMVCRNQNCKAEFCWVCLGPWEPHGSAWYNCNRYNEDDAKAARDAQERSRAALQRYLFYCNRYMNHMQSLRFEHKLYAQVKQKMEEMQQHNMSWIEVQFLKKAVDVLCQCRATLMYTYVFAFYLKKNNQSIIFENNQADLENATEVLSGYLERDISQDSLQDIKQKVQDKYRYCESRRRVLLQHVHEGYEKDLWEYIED
HHARI-RBR, sequence (Q9Y4X5 whole entry, the tested form may be a part): as above
RNF144A-Ring1, sequence (P50876 whole entry, the tested form may be a part): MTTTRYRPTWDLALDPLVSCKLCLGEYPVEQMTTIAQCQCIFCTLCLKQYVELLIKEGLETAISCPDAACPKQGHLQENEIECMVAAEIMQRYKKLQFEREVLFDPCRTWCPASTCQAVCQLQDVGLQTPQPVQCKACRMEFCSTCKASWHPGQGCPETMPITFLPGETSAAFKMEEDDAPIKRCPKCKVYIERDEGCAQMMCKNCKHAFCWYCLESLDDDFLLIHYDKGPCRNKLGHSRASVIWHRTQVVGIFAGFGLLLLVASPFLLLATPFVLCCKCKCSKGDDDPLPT
HOIP-Ring1, sequence (Q96EP0 whole entry, the tested form may be a part): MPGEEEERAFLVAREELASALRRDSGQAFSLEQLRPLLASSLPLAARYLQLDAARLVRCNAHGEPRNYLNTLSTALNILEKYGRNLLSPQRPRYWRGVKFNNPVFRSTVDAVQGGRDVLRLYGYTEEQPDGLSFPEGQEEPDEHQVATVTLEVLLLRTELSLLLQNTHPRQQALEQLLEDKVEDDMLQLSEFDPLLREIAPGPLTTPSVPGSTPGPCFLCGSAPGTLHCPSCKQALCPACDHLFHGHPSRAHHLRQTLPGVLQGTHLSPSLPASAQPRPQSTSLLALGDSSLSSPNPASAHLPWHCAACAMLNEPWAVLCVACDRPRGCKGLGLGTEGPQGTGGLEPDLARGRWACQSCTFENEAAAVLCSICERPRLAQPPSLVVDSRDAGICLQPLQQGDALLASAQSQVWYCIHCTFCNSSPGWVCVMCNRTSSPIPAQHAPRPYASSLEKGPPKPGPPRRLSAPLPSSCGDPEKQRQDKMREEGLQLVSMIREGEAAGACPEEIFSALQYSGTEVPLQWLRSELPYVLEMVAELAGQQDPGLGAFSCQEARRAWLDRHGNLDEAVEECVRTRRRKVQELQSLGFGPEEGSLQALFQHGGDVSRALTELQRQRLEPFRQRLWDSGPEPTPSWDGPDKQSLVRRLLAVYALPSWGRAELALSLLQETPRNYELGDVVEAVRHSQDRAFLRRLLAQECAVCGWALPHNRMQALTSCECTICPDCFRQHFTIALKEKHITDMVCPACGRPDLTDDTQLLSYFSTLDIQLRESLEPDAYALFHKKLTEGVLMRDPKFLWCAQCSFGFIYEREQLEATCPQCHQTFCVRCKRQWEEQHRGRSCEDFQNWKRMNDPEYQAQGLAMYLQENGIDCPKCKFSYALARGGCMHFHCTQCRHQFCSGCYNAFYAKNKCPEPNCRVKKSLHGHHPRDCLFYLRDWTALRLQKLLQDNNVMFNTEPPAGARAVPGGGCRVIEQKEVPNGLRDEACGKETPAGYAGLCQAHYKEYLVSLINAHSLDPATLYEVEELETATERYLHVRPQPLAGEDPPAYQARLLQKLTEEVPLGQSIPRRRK
HOIP-RBR, sequence (Q96EP0 whole entry, the tested form may be a part): as above
RNF144A-RBR, sequence (P50876 1-250): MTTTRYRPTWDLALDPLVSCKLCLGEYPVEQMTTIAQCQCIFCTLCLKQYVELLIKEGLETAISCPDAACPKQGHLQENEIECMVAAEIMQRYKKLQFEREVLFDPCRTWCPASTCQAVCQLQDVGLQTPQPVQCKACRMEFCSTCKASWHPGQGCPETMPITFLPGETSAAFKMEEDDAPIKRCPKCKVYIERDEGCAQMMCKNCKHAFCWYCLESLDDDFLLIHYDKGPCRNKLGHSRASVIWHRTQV
HHARI, sequence (Q9Y4X5 whole entry): as the sequence (Q9Y4X5 whole entry, the tested form may be a part) above

| Substance | Kd [1] | dH [1] | stoichiometry N [1] | Kd [2] | dH [2] | stoichiometry N [2] | Kd [3] | dH [3] | stoichiometry N [3] | Kd [4] |
| --- | --- | --- | --- | --- | --- | --- | --- | --- | --- | --- |
| HOIP-RBR (from UniProt Q96EP0 1-1072) (domain or fragment) | 2300 nM | 0.8 kcal/mol | 0.8 | 900 nM | 0.8 kcal/mol | 0.9 | 4300 nM | -8.2 kcal/mol | 0.9 | – |
| RNF144A-Ring1 (from UniProt P50876 1-292) (domain or fragment) | 2200 nM | 3.5 kcal/mol | 0.8 | 1000 nM | 2.7 kcal/mol | 0.8 | > 50000 nM | – | – | – |
| HOIP-Ring1 (from UniProt Q96EP0 1-1072) (domain or fragment) | – | 1.4 kcal/mol | 1 | 4300 nM | 1.1 kcal/mol | 0.9 | > 50000 nM | – | – | – |
| TRIAD3A-RBR (from UniProt Q9NWF9-2 510-801) (domain or fragment) | – | – | – | 2400 nM | 3.7 kcal/mol | 0.9 | – | – | – | – |
| TRIAD3A-Ring1 (from UniProt Q9NWF9-2 1-866) (domain or fragment) | 3200 nM | 4.5 kcal/mol | 0.8 | 4300 nM | 3.6 kcal/mol | 0.8 | > 50000 nM | – | – | – |
| HHARI (from UniProt Q9Y4X5) | – | – | – | – | – | – | – | – | – | 20000 nM |

More lines, main results first:

| Kd [1] | dH [1] | stoichiometry N [1] | Kd [2] | dH [2] | stoichiometry N [2] | Kd [3] | dH [3] | stoichiometry N [3] | Substance | Kd [4] |
| --- | --- | --- | --- | --- | --- | --- | --- | --- | --- | --- |
| 210 nM | 4.2 kcal/mol | 0.8 | 120 nM | 3.9 kcal/mol | 0.8 | > 50000 nM | – | – | HHARI-Ring1 (from UniProt Q9Y4X5 1-557) (domain or fragment) | – |
| 410 nM | 1.8 kcal/mol | 0.9 | 200 nM | -2.3 kcal/mol | 0.9 | 4500 nM | -3.7 kcal/mol | 0.8 | HHARI-RBR (from UniProt Q9Y4X5 1-557) (domain or fragment) | – |
| 1000 nM | 1.7 kcal/mol | 0.9 | 520 nM | -0.9 kcal/mol | 0.8 | – | – | – | RNF144A-RBR (from UniProt P50876 1-250) (domain or fragment) | – |

— paper PMC5758712
